Experiment: yeast display, Sf9 membrane polyspecificity reagent, FACS + sequencing; frameworks hold sequencing errors
How it was run: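 Polyreactivity labels are assigned by the sorting gate from which each nanobody was recovered. The gates were low and high (top ~1%), set on anti-HA fluorescence for expression and streptavidin fluorescence for reagent binding. Before sorting, galactose-induced (36–48 hours) yeast display cells were stained for 1 hour at 4 °C with 10% biotinylated, detergent-solubilized Sf9 membrane reagent.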

Row | Sequence | polyreactivity (PSR sort gate)
1 | QVQLVESGGGLVQAGGSLRLSCADSGSIFRDNVMGWYRQAPGKEREFVAAISRRGGITYYADSVKGRFTISRDNAKNTVYLQMNSLKPEDTAVYYCATTGGRQYGYWGQGTQVTVSS | high polyreactivity
2 | QVQLVESGGGLVQAGGSLRLSCADSGSIFSKYAMGWYRQAPGKERELVAAISRSGGRTYYADSVKGRFTISRDNAKNTVYLQMNSLKPEDTAVYYCAADRSYYTWFGGDYWGQGTQVTVSS | high polyreactivity
3 | QVQLVESGGGLVQAGGSLRLSCADSGSIFVYNAMGWYRQAPGKERELVAAITTGGSTNYADSVKGRFTISRDNAKNTVYLQMISLKPEDTAVYYCAVEGYPGRYRDPGDLYYYWGQGTQVTLSS | low polyreactivity
4 | QVQLVESGGGLVQAGGSLRLSCADSGSIFWGNAMGWYRQAPGKERELVAAITRGGSTYYADSVKGRFTISRDNAKNTVYLQMNSLTPEDTAVYYWAVLSRRYAAYDYWGLGTQVTVSS | high polyreactivity
5 | QVQLVESGGGLVQAGGSLRLSCADSGSIFYTYAMGWYRPAPGKERELVAAITRSGGSTNYADSVKGRFTITRDNAKYTVYLQMNSLKPEDNAVYYCAAVFNWAPYFYYYWGQRTQVTVSS | high polyreactivity
6 | QVQLVESGGGLVQAGGSLRLSCADSGSSFPSYAMLWYRQAPGKERELVAAISSSGGRTYYADYVKGRFTISRDNAKNTVYLQMNSLIPVDTAVYYCAADRRKWPTGGYWGEGTQVTVSS | high polyreactivity
7 | QVQLVESGGGLVQAGGSLRLSCADSGSTFPFYAMGWYSHSPGKERELVAAITSGGSTYADYVKGRFTISRDNAKNTVYLQMNSLNPEDTAVYYCAGSWPRWWRFGYWGQGTQVTVSS | low polyreactivity
8 | QVQLVESGGGLVQAGGSLRLSCADSGSTFQANAMGWYRQAPGKERELVATISNDGSTKYADSVKGRFTISRDNAKNTVYLQMNSLKPEDTALYYCAADSARHGRDTYQPEYRNDYWGQGTQVTVSS | low polyreactivity
9 | QVQLVESGGGLVQAGGSLRLSCADSGSTFRYYAMGWYRQAPGKERELVAAITKNGGSTYYADSVKGRFTISRDNAKNTVYLEMNSLKPEDTAVYYCAVQFSYSGWYYVSYYYWGQGTQVTVSS | high polyreactivity
10 | QVQLVESGGGLVQAGGSLRLSCADSGSTFTSNAMRWYRQAPGKEREFVAAINWGGSITYYADSVKGRFTISRDNAKNTVYLQMNSLKPEDTAVYYCAAETYYDTYYPEGDYWGQGTQVTVSS | low polyreactivity
11 | QVQLVESGGGLVQAGGSLRLSCADSGSTFTVYVMGWYRQAPGKETEFVAAITRIGGSTYYADSVKGRFTISRDYAKNTVYLQRNCLKTEDTAVYYCATYHTNSYYQLLYDYWGQGTQVTVSS | low polyreactivity
12 | QVQLVESGGGLVQAGGSLRLSCADSGSTFYHNAMGWYRQAPGKERELDDAIRFSGTSTYYADSVKGRFTISRDNAKNTVYLQMNSLKPEDTAVYYCAAEVSSPAQREFDYWGQGTQVTVSS | low polyreactivity
13 | QVQLVESGGGLVQAGGSLRLSCADSGSTFYRYAMGWYRPAPGKERELVAAISKRGGSTYYADSVKGRFTISRDNAKNTVYLQMNSLKPEDTAVYYCAADPFHYGGGDDYWGQGTQVTVSS | high polyreactivity
14 | QVQLVESGGGLVQAGGSLRLSCADSGSTITYYTMGWYRQAPGKERDLVAAISGSGGRTYYADSVKGRFTISRDNAKNTVYLQMNSLKPEDTAVYYCAAGYQLSRYDYWGQGTQVTVSS | high polyreactivity
15 | QVQLVESGGGLVQAGGSLRLSCADSGSTIYGYAMGWYRQAPGKERELVAAISISGGGTYYADSVKGRFTISRDNAKNSVYLQMNSLKPEDTAVYYCARRYFWGQGTQVTVSS | low polyreactivity
16 | QVQLVESGGGLVQAGGSLRLSCADSGYIFYYNAMGWYRQAPGKERDLVATITSGGSTYYADSLKGRFTISRDNAKNTVYLQMNSLKPEDTAVYYCAAPSQSIRYTYIRSYYWGQGTQVTVSS | low polyreactivity
17 | QVQLVESGGGLVQAGGSLRLSCADSRFNYSYNAMGSYRKAPGKERELVAAISTSGGRTYYADSVKGRFTISRDNAKNTVYLQMNSLKPEDTAVYYCAALSRNQYDPQSYVYWGQGTQVTGSS | high polyreactivity

Source: the nanobody polyreactivity screen of Harvey et al. (2022)
